Assay results reported in patent US20190359711A1 (Janssen / Centocor, published 2019).

T1: B-Defensin-3 (Homo sapiens (Human), UniProt P81534 23-67, not fully specified)
T1 construct: also called β-defensin
T1 peptide: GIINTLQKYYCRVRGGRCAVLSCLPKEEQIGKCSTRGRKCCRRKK

T2: rh-CD19 (UniProt P15391 20-291, limits assumed)
T2 construct: 'rh-' is not explained
T2 sequence (looked up): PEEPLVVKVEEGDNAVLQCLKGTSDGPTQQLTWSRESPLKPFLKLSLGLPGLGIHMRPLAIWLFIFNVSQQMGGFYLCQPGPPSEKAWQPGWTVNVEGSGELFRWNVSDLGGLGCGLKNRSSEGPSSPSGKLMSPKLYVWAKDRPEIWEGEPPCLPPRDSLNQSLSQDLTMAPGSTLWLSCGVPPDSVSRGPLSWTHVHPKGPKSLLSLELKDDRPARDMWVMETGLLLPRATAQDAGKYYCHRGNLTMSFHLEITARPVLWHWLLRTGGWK


Tests used:
[1] = biological target: T1, B-Defensin-3; experiment: SPR (Biacore 8K), antibody passed over immobilized protein
Procedure: (§1) Non-specific binding of the lead molecule to unrelated surfaces is determined by biosensor technology (Biacore 8K). Antibody is passed over SPR surfaces coated with unrelated proteins. […] Lead molecule is tested at the final concentration of 1 μM. Irrelevant surfaces include negatively charged protein (Soy Trypsin Inhibitor), positively charged protein (Lysozyme and β-defensin), hydrophobic (Rh-integrin a4b7), human IgG, sticky protein (Rh-CD19). Proper controls are used in this experiment. Lead is flown over two surfaces, one is a blank and the other has a molecule directly immobilized. The response unit (RU) level is determined by subtracting the blank RU from the test surface RU. The RU of TMCB150 and the parental mAbs are given below in the table. A response unit ≥100 predicts high risks for non-specific binding to charged/hydrophobic/IgG surfaces which would create challenges during manufacturing and translate to poor PK properties. None of the antibodies show non-specific binding to irrelevant surfaces predicting low to no risks for manufacturing and in-vivo behavior.

[2] = biological target: T3, rh-Integrin a4b7 (UniProt P13612 34-977; P26010 20-723); experiment: as above
T3 construct: 'rh-' is not explained
T3 sequence (P13612 34-977, chain 1 of 2): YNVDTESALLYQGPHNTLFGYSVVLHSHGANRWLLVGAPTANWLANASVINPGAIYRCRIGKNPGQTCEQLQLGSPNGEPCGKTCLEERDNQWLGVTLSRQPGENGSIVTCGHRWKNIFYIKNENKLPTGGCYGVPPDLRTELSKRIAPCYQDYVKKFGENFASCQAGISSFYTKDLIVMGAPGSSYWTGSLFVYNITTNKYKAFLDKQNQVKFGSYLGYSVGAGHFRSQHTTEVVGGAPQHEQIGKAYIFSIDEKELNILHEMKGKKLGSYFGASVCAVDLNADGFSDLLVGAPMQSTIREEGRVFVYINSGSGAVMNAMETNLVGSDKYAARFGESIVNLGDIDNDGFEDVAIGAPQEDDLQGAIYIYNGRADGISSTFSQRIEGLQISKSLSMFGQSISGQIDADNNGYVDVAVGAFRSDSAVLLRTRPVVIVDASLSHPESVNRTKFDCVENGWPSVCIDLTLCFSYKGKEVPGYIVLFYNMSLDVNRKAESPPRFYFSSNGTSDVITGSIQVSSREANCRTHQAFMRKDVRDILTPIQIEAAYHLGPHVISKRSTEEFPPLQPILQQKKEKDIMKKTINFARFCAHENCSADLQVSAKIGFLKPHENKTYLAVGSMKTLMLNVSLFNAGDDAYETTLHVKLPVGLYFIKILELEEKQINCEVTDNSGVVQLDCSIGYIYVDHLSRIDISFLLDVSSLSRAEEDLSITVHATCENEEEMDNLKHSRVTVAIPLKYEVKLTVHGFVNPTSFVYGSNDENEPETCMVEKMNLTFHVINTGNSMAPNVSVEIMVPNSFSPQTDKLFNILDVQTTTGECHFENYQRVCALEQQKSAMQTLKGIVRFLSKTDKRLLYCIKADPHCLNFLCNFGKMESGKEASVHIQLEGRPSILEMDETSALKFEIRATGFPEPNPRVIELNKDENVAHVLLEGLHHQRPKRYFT
T3 sequence (P26010 20-723, chain 2 of 2): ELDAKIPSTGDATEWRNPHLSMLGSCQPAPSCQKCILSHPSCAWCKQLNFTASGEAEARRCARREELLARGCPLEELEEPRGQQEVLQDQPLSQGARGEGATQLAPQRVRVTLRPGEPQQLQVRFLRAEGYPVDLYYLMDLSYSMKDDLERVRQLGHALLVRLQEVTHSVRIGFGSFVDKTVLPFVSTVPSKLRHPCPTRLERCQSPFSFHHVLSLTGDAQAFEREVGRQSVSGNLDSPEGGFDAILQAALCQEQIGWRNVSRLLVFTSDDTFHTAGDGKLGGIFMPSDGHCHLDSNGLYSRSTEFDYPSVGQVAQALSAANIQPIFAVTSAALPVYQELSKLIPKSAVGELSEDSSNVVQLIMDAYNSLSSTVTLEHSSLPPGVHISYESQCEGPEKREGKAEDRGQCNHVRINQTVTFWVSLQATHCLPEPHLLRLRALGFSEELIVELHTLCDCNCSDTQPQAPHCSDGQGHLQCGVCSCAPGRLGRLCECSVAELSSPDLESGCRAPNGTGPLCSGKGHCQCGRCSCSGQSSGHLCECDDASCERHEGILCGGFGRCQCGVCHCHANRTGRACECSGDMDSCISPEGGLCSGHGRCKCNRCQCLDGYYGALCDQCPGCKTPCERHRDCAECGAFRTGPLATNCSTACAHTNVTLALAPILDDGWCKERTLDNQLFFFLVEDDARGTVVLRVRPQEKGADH
Procedure: as §1

[3] = biological target: T2, rh-CD19; experiment: as above
Procedure: as §1

[4] = biological target: T4, Soy Trypsin Inhibitor (soy); experiment: SPR (Biacore 8K), 1 µM antibody over immobilized protein, blank subtracted
T4 construct: also called STI
T4 sequence (P01070 25-205): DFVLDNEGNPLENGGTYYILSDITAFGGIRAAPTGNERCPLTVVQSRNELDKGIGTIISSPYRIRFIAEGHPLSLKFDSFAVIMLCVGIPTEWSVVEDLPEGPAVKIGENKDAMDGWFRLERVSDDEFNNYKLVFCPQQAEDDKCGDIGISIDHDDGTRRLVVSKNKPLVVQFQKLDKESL
Procedure: as §1

[5] = biological target: T1, B-Defensin-3; experiment: as above
Procedure: as §1

[6] = biological target: Human IgG; experiment: as above
Procedure: as §1

[7] = biological target: Lysozyme; experiment: as above
Lysozyme, sequence (P00698 19-147): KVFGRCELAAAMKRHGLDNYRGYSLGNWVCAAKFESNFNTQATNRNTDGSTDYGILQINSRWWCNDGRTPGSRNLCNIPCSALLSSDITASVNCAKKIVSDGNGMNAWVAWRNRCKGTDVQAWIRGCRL
Procedure: as §1

[8] = biological target: T3, rh-Integrin a4b7; experiment: as above
Procedure: as §1

[9] = biological target: T2, rh-CD19; experiment: as above
Procedure: as §1

Binder	binding result [1]	binding result [2]	binding result [3]	response unit (RU) [4] [RU]	response unit (RU) [5] [RU]	response unit (RU) [6] [RU]	response unit (RU) [7] [RU]	response unit (RU) [8] [RU]	response unit (RU) [9] [RU]
CD3B376 (antibody, V domains shown, HC is IgG4 S228P, F234A, L235A, F405L, R409K; also called anti-CD3 antibody; bivalent CD3B376) VH: QVQLQQSGPRLVRPSQTLSLTCAISGDSVFNNNAAWSWIRQSPSRGLEWLGRTYYRSKWLYDYAVSVKSRITVNPDTSRNQFTLQLNSVTPEDTALYYCARGYSSSFDYWGQGTLVTVSS VL: QSALTQPASVSGSPGQSITISCTGTSSNIGTYKFVSWYQQHPDKAPKVLLYEVSKRPSGVSSRFSGSKSGNTASLTISGLQAEDQADYHCVSYAGSGTLLFGGGTKLTVLG	no binding	no binding	no binding	19.5	3.1	0.4	0.2	0	0
TMCB150 (bispecific antibody, human IgG4 S228P, kappa, lambda, F234A L235A, made by Fab arm exchange of the parental IgG4PAA mAbs, so the chains are those of TMEB762 (HC 91, LC 92) and CD3B376 (HC 78, LC 79); also called TMEB762xCD3B376; bispecific anti-TMEFF2/CD3 antibody) heavy 1: not shown light 1: not shown heavy 2: QVQLQQSGPRLVRPSQTLSLTCAISGDSVFNNNAAWSWIRQSPSRGLEWLGRTYYRSKWLYDYAVSVKSRITVNPDTSRNQFTLQLNSVTPEDTALYYCARGYSSSFDYWGQGTLVTVSSASTKGPSVFPLAPCSRSTSESTAALGCLVKDYFPEPVTVSWNSGALTSGVHTFPAVLQSSGLYSLSSVVTVPSSSLGTKTYTCNVDHKPSNTKVDKRVESKYGPPCPPCPAPEAAGGPSVFLFPPKPKDTLMISRTPEVTCVVVDVSQEDPEVQFNWYVDGVEVHNAKTKPREEQFNSTYRVVSVLTVLHQDWLNGKEYKCKVSNKGLPSSIEKTISKAKGQPREPQVYTLPPSQEEMTKNQVSLTCLVKGFYPSDIAVEWESNGQPENNYKTTPPVLDSDGSFLLYSKLTVDKSRWQEGNVFSCSVMHEALHNHYTQKSLSLSLGK light 2: QSALTQPASVSGSPGQSITISCTGTSSNIGTYKFVSWYQQHPDKAPKVLLYEVSKRPSGVSSRFSGSKSGNTASLTISGLQAEDQADYHCVSYAGSGTLLFGGGTKLTVLGQPKAAPSVTLFPPSSEELQANKATLVCLISDFYPGAVTVAWKADSSPVKAGVETTTPSKQSNNKYAASSYLSLTPEQWKSHRSYSCQVTHEGSTVEKTVAPTECS	no binding	no binding	no binding	1.6	6.4	7.5	4.2	0	3.4
TMEB762 (antibody, human IgG4 S228P, kappa, F234A L235A, V domains shown, IgG4PAA; re-engineered variant of TMEB675 (HC R14P, P20L, H81Q; LC A1D, A91P, Kabat); Bivalent TMEFF2 parent of TMCB150; also called anti-TMEFF2 antibody; VH TMEH459) VH: EVQLLESGGGLVQPGGSLRLSCAASGFTFSSYSMSWVRQAPGKGLEWVSVISGSGGFTDYADSVKGRFTISRDNSKNTLYLQMNSLRAEDTAVYYCARMPLNSPHDYWGQGTLVTVSS VL: DIQMTQSPSSLSASVGDRVTITCRASQGIRNDLGWYQQKPGKAPKLLIYAASSLQSGVPSRFSGSGSGTDFTLTISSLQPEDFATYYCLQDYNYPLTFGGGTKVEIKR	no binding	no binding	no binding	0	4.1	8.4	4.6	0	3.3
